The values below come from paper PMC3553968 (Nucleic Acids Research, 2012).

Sequences and labels used below:
B2: Noc1p (recombinant, untagged) (natural protein)
chain: MSENNGNPLDLSSLRNKISSKLRDNNSKKAKKTHKGKDVKASSNSKKVNEDIRREALALGASEEDLKLIQGLSDDDDAKSEQEFDAVADEDADDKGFKNDLQNFMKNVGFDQHKLEDVDDDDIEEESTSSKESKIPAQEKEHAQSNIASSTIEKTSQESIDNGSEQEENTVEEANLSSDQEPESESAEKEKKEEKDGGLITQTTIISSDKLIIPYDKPWYEIPLDPQVGQNDDVEELSKEQIEKLFERGKQTLEADNQTYYEEFTKDSSQAKFMSQILSDGTLNDKISAVTLLIQDSPLHNTKSLETLVSYCGKKSRNSALQSLNALKDLFLNGLLPNRKLRYFKNQPGLSMMLNKKTLAIFYFEDYLKKLFFRVLEVLEVLSHDPIIHVRLQILNHVFDLLTNQPEQEFNLLRLGVNKIGDIDSKVSSKASYLLLKLEQAHPNMKSIVIDAIVDIALRPNADYHTTYYSVITLNQTILKRSEDSVANKLVKTYFTLFEKFLINTDKDNTNGVVKSNSKSYEEKRKKNFKKGKHGGKSVKIEKTENEVLDEKNSKLFSALLTGINRAFPFAQIPASVYEVHMETLFKITHSSNFNTSIQALVLINQVTVKAKLNSDRYYRTLYESLFDPRLVNSSKQGIYLNLLYKSLKQDALNVERVEAFVKRILQVCSHWLNVGTITGFFFLLIQLAKTVPQIKNLLTNTPVDYEYESDAEEEQGDKDIKRKEYDGRKRDPKFANAEKSSLWEINNFINHFHPTVKTYANAYVTGETEQIAKPDLGLFTLSHFLDRFVYRSAKQTNTARGTSIMQPLFSGSRVNDSVLVKASDIMHDQGPVNTEDWLTKKVEDIKPEDKFFYQYFTTKKTADGKGKKSNKASNFDSDDEMDENEIWSALVKSRPDVEDDSDDSELDFAEDDFSDSTSDDEPKLDAIDDEDAKSEGSQESDQEEGLDEDIFYSFDGEQDNSDKKRSFAESSEEDESSEEEKEEEENKEVSAKRAKKKQRKNMLKSLPVFASADDYAQYLDQDSD

Assay [1] has as its target B2. Kind of assay: SEC. (In general: SEC sorts molecules by how far they enter the pores of the column.)
The target in a further assay is HA-Rrp5p (S. cerevisiae, UniProt Q05022 1-1729). Kind of assay: SEC.
HA-Rrp5p, sequence (Q05022 whole entry): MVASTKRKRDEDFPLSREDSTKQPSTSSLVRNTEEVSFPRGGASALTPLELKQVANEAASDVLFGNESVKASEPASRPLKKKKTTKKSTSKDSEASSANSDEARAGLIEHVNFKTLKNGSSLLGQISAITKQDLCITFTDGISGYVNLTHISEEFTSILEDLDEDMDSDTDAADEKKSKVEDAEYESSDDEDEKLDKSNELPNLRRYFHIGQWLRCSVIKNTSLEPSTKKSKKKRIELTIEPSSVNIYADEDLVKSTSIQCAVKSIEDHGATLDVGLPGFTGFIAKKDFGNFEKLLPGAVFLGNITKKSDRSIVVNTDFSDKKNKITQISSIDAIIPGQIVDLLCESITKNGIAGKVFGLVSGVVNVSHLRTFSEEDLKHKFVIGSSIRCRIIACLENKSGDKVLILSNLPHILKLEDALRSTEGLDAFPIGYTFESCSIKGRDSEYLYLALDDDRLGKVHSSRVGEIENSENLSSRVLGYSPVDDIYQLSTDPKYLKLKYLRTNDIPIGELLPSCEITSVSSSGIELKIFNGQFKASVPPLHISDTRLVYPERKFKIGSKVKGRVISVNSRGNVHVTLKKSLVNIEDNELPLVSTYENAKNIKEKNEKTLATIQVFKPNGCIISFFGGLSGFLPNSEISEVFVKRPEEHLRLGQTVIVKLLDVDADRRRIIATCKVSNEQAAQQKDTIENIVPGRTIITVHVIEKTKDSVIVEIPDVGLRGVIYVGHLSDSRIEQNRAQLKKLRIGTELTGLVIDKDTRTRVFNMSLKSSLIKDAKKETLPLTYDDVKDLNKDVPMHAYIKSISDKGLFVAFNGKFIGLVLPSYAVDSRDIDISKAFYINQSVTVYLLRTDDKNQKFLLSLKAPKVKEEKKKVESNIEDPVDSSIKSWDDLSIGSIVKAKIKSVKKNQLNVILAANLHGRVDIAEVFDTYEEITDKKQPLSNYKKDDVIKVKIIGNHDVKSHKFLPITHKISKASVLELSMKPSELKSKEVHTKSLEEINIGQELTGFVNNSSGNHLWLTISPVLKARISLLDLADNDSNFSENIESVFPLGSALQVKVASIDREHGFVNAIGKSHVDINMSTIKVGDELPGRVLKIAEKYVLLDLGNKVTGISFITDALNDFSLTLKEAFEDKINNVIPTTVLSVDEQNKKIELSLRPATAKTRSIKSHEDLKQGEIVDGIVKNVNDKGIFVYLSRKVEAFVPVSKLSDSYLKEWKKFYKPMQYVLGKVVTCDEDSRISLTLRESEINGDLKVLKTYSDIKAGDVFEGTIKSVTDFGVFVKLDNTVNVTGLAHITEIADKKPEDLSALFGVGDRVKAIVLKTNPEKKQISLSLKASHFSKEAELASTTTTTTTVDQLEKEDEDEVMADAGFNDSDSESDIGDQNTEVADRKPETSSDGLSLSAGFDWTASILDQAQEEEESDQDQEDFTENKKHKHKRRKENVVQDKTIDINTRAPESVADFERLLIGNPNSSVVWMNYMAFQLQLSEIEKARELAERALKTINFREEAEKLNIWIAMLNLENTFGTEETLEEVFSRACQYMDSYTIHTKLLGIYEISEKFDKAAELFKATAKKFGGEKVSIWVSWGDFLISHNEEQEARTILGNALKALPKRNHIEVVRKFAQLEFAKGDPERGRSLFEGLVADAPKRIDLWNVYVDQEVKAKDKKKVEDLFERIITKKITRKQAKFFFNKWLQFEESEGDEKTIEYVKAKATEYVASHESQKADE

B1: Flag-Noc2p (natural protein)
chain: MGKVSKSTKKFQSKHLKHTLDQRRKEKIQKKRIQGRRGNKTDQEKADAAGTREQQQLKKSAKEEVFKDMSVETFFEKGIEIPKENKKLKKKTTKEQSDEDSSSSEEEEDMGQSMAKLAEKDPEFYKYLEENDKDLLDFAGTNPLDGIDSQDEGEDAERNSNIEEKSEQMELEKEKIELSLKLVRKWKKQLHDSPSLKLLRNIISAFKVAVNLNKEENIEDYKYAITDEKAFHELMFMVLKDVPQAIQKMAPYKIVKGARTLPNGGNVSRVSSIVKSHAGSLLILLNDITNTETAALVLHSVNELMPYLLSYRRILKELIKSIVGVWSTTRELETQIASFAFLINTTKEFKKSMLETTLKTTYSTFIKSCRKTNMRSMPLINFQKNSAAELFGIDEVLGYQVGFEYIRQLAIHLRNTMNATTKKSSKINSAEAYKIVYNWQFCHSLDFWSRVLSFACQPEKENGSESPLRQLIYPLVQVTLGVIRLIPTPQFFPLRFYLIKSLIRLSQNSGVFIPIYPLLSEILTSTAFTKAPKKSPNLAAFDFEHNIKCTQAYLNTKIYQEGLSEQFVDLLGDYFALYCKNIAFPELVTPVIISLRRYIKTSTNVKLNKRLSTVVEKLNQNSTFIQEKRSDVEFGPTNKSEVSRFLNDVAWNKTPLGSYVAVQREVKEEKARLMRESMEEQDKERETEEAKLLNSLESDDDNEDVEMSDA
As for B1, the binding result in assay [1] is listed as “binds”. With B2, the binding result with HA-Rrp5p was “binds”.
